In PMC2910870 (Neuron, 2010):

B1: β-NRX1+4 (mouse β-neurexin 1 LNS domain, with splice insert 4) (domain or fragment)
chain: not shown
modifications: N-glycosylation at Asn184
B2: β-NRX2+4 (rat β-neurexin 2 LNS domain, with splice insert 4) (domain or fragment)
chain: not shown
modifications: N-glycosylation at Asn186

Columns and labels:
Test in all cases: SPR
[1] = molecular target: NL1AB (rat neuroligin 1 cholinesterase-like region, with inserts A and B) (rat, UniProt Q62765 48-638)
[2] = molecular target: NL2A (rat neuroligin 2 cholinesterase-like region, with insert A) (rat, UniProt Q62888 46-612)
NL2A (rat neuroligin 2 cholinesterase-like region, with insert A), sequence (Q62888 46-612): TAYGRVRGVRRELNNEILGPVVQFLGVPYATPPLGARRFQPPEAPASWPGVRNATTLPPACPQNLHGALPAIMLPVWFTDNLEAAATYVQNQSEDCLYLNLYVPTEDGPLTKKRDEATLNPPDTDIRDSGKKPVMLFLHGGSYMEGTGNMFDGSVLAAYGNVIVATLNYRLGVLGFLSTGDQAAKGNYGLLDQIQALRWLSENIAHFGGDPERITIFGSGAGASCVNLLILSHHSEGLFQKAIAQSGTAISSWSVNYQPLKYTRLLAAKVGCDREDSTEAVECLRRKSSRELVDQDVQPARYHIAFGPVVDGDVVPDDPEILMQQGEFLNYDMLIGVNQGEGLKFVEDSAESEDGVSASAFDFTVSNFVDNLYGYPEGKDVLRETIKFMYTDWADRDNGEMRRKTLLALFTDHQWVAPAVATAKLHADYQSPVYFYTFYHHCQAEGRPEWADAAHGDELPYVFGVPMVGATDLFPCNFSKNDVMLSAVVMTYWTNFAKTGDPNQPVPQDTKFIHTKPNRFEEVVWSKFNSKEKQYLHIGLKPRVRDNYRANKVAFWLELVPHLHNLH

[3] = molecular target: NL3A1A2 (rat neuroligin 3 cholinesterase-like region, with inserts A1 and A2) (rat, UniProt Q62889 42-633)
NL3A1A2 (rat neuroligin 3 cholinesterase-like region, with inserts A1 and A2), sequence (Q62889 42-633): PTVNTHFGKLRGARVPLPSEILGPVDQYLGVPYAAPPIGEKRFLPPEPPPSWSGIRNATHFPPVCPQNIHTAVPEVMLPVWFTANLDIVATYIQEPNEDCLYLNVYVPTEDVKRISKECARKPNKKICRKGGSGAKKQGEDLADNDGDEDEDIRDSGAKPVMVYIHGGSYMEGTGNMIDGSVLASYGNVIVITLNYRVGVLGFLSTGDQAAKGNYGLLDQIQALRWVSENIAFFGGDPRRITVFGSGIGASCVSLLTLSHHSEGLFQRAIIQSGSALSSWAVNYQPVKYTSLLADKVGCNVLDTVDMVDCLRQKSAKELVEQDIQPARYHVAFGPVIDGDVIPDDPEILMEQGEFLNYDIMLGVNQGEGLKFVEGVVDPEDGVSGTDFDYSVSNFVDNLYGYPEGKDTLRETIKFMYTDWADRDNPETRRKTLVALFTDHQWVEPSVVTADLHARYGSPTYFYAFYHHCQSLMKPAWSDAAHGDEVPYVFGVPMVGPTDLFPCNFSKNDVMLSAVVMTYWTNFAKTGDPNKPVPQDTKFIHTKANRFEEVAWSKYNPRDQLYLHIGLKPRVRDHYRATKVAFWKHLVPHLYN

NL1AB (rat neuroligin 1 cholinesterase-like region, with inserts A and B), sequence (Q62765 48-638): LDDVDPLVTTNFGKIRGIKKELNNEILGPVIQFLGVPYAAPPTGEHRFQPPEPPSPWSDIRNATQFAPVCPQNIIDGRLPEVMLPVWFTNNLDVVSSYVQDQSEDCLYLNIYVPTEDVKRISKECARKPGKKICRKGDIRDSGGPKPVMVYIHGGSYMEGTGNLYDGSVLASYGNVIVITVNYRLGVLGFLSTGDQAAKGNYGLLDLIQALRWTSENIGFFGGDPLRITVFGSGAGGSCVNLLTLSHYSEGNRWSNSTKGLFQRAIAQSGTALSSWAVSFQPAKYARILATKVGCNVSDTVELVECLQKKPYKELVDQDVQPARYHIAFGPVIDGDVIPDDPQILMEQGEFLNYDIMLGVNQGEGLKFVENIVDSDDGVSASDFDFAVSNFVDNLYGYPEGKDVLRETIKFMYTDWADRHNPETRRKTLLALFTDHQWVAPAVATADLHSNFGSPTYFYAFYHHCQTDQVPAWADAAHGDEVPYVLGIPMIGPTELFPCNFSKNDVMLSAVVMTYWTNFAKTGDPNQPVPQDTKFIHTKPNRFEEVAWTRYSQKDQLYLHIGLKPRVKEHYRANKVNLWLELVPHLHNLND

Row | Binder | Kd [1] [µM] | Kd [2] [µM] | Kd [3] [µM]
1 | B1 | 2.82 | 3.17 | 21
2 | B2 | 5.66 | 3.01 | 48
